# Residue numbers refer to the chain shown, from its start.
# T1: human mutCALR on BaF3 cells stably expressing human MPL and human mutCALR (MPL-mutCALR cells) (human)
# T1 construct: also called mutant calreticulin
# T1 chain: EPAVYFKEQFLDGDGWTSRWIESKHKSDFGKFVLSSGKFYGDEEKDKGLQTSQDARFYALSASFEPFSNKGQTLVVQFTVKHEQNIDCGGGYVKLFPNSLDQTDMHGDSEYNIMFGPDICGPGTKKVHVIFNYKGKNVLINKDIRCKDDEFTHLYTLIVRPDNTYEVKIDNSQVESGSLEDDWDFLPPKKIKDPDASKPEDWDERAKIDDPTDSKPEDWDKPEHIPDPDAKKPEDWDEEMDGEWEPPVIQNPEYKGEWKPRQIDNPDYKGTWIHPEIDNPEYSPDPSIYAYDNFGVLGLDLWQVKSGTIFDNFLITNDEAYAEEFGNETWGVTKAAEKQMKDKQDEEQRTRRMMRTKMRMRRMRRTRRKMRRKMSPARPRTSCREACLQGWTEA
# B1: anti-mutCALR antibody clone 130 (antibody, human IgG1, lambda, N297A, V domains shown)
# VH: EVQLVQSGAEVKKPGASVKVSCKVSGYTLTELSMQWVRQAPGKGLEWMGGFDPDAGETMYAEKFQGRLTVTEDTSTDTVYMELSSLRSEDTAVYFCATSPGYDFFDYWGQGTLVTVSS
# VL: SYELTQPPSVSVAPGKTARITCGGDNIGSKSVHWYQQKPGQAPVLVVYDDSDRPSGIPERFSGSNSGNTATLTINRVEAGDEADYYCQVWDSSNDLLIFGGGTKLTVLG
# B2: anti-mutCALR antibody clone 142 (antibody, human IgG1, lambda, N297A, V domains shown)
# VH: B1 VH with A55E
# VL: B1 VL with E3V, N75S
# B3: anti-mutCALR antibody clone 131 (antibody, human IgG1, lambda, N297A, V domains shown)
# VH: B1 VH with A55S
# VL: B1 VL
# B4: anti-mutCALR antibody clone 134 (antibody, human IgG1, lambda, N297A)
# heavy: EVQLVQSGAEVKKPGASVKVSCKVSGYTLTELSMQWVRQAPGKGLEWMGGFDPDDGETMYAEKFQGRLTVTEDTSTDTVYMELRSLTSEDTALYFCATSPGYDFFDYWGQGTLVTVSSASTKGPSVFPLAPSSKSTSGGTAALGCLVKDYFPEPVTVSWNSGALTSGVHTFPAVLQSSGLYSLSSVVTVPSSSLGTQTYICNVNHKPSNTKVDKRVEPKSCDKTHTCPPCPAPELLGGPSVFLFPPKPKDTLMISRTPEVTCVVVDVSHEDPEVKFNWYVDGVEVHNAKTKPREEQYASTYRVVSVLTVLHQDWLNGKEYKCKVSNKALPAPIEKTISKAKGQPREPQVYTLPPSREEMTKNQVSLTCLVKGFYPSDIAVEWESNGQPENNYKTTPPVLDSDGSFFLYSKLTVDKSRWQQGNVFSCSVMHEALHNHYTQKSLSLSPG
# light: SYVLTQPPSVSVAPGKTARITCGGDNIGSKSVHWYQQKPGQAPVLVVYDDSDRPSGIPERFSGSNSGNTATLTISRVEAGDEADYYCQVWDSSNDLLIFGGGTKLTVLGQPKAAPSVTLFPPSSEELQANKATLVCLISDFYPGAVTVAWKADSSPVKAGVETTTPSKQSNNKYAASSYLSLTPEQWKSHRSYSCQVTHEGSTVEKTVAPTECS
# B5: anti-mutCALR antibody clone 189 (antibody, human IgG1, lambda, N297A, V domains shown)
# VH: B1 VH with A55D, G56A
# VL: B1 VL with E3V, K16Q, D25S, N26D, S29D, K30E, S31I, N75S, N94S, L96H
# B6: anti-mutCALR antibody clone 133 (antibody, human IgG1, lambda, N297A, V domains shown)
# VH: B1 VH with A55D, G56A
# VL: B1 VL
# B7: anti-mutCALR antibody clone 137 (antibody, human IgG1, lambda, N297A, V domains shown)
# VH: B1 VH with A55E, S84R, R87T, V93L
# VL: B1 VL with E3V, N75S
# B8: anti-mutCALR antibody clone 136 (antibody, human IgG1, lambda, N297A, V domains shown)
# VH: B1 VH with A55S, S84R, R87T, V93L
# VL: B1 VL with E3V, N75S
# B9: anti-mutCALR antibody clone 132 (antibody, human IgG1, lambda, N297A, V domains shown)
# VH: B1 VH with A55E
# VL: B1 VL
# B10: anti-mutCALR antibody clone 173 (antibody, human IgG1, lambda, N297A, V domains shown)
# VH: B1 VH with A55E, S84R, R87T, V93L
# VL: SYVLTQPPSVSVAPGQTARITCGGSDIGDEIVHWYQQKPGQAPVLVVYDDSDRPSGIPERFSGSNSGNTATLTISRAQAGDEADYYCQVWDSSSDHLIFGGGTKLTVLG
# B11: anti-mutCALR antibody clone 138 (antibody, human IgG1, lambda, N297A, V domains shown)
# VH: B1 VH with A55D, G56A, S84R, R87T, V93L
# VL: B1 VL with E3V, N75S
# B12: anti-mutCALR antibody clone 174 (antibody, human IgG1, lambda, N297A, V domains shown)
# VH: B1 VH with A55D, G56A, S84R, R87T, V93L
# VL: B10 VL
# B13: anti-mutCALR antibody clone 184 (antibody, human IgG1, lambda, N297A, V domains shown)
# VH: B1 VH with A55D, G56A, S84R, R87T, V93L
# VL: B10 VL with A77V, Q78E
# B14: anti-mutCALR antibody clone 140 (antibody, human IgG1, lambda, N297A, V domains shown)
# VH: B1 VH
# VL: B1 VL with E3V, N75S
# B15: anti-mutCALR antibody clone 143 (antibody, human IgG1, lambda, N297A, V domains shown)
# VH: B1 VH with A55D, G56A
# VL: B1 VL with E3V, N75S
# B16: anti-mutCALR antibody clone 181 (antibody, human IgG1, lambda, N297A, V domains shown)
# VH: B1 VH with S84R, R87T, V93L
# VL: B10 VL with A77V, Q78E
# B17: anti-mutCALR antibody clone 141 (antibody, human IgG1, lambda, N297A, V domains shown)
# VH: B1 VH with A55S
# VL: B1 VL with E3V, N75S
# B18: anti-mutCALR antibody clone 135 (antibody, human IgG1, lambda, N297A, V domains shown)
# VH: B1 VH with S84R, R87T, V93L
# VL: B1 VL with E3V, N75S
# B19: anti-mutCALR antibody clone 170 (antibody, human IgG1, lambda, N297A)
# heavy: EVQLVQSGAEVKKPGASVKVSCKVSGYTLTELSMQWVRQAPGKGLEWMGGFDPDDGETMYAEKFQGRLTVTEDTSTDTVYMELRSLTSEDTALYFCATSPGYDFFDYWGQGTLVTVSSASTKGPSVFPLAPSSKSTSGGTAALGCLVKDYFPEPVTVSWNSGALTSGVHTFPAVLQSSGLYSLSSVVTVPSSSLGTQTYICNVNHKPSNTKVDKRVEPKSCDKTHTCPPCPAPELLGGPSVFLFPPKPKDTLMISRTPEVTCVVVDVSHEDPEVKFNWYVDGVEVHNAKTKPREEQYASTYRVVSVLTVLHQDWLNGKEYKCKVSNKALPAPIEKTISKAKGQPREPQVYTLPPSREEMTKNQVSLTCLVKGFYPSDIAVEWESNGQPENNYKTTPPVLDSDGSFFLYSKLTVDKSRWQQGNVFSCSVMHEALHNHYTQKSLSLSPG
# light: B4 light with K16Q, D25S, N26D, S29D, K30E, S31I, V77A, E78Q, N94S, L96H
# B20: anti-mutCALR antibody clone 186 (antibody, human IgG1, lambda, N297A, V domains shown)
# VH: B1 VH
# VL: B10 VL with A77V, Q78E
# B21: anti-mutCALR antibody clone 188 (antibody, human IgG1, lambda, N297A, V domains shown)
# VH: B1 VH with A55E
# VL: B10 VL with A77V, Q78E
# B22: anti-mutCALR antibody clone 183 (antibody, human IgG1, lambda, N297A, V domains shown)
# VH: B1 VH with A55E, S84R, R87T, V93L
# VL: B10 VL with A77V, Q78E
# B23: anti-mutCALR antibody clone 171 (antibody, human IgG1, lambda, N297A, V domains shown)
# VH: B1 VH with S84R, R87T, V93L
# VL: B10 VL
# B24: anti-mutCALR antibody clone 172 (antibody, human IgG1, lambda, N297A, V domains shown)
# VH: B1 VH with A55S, S84R, R87T, V93L
# VL: B10 VL
# B25: anti-mutCALR antibody clone 187 (antibody, human IgG1, lambda, N297A, V domains shown)
# VH: B1 VH with A55S
# VL: B10 VL with A77V, Q78E
# B26: anti-mutCALR antibody clone 182 (antibody, human IgG1, lambda, N297A, V domains shown)
# VH: B1 VH with A55S, S84R, R87T, V93L
# VL: B10 VL with A77V, Q78E
# B27: anti-mutCALR antibody clone 55 (antibody, human IgG1, lambda, N297A)
# heavy: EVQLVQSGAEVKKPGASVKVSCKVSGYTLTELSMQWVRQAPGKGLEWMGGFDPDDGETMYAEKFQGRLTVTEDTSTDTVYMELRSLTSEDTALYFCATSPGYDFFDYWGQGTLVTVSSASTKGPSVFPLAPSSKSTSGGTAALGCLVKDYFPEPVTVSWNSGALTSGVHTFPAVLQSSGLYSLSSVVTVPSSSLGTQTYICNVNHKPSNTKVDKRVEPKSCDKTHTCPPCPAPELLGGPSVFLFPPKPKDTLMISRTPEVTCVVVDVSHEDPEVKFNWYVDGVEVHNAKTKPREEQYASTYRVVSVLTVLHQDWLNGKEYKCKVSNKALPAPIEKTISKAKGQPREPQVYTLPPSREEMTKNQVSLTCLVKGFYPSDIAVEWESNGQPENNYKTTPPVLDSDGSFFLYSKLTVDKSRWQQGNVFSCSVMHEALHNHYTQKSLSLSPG
# light: QSALTQPASVSGSPGQSITISCTGTSSDVGGYNYVSWYQQHPGKAPKLMIYEVSNRPSGVSNRFSGSNSGNTATLTINRVEAGDEADYYCQVWDSSNDLLIFGGGTKLTVLGQPKAAPSVTLFPPSSEELQANKATLVCLISDFYPGAVTVAWKADSSPVKAGVETTTPSKQSNNKYAASSYLSLTPEQWKSHRSYSCQVTHEGSTVEKTVAPTECS
# notes: also called antibody 55
# B28: anti-mutCALR antibody clone 56 (antibody, human IgG1, lambda, N297A, V domains shown)
# VH: B1 VH with S84R, R87T, V93L
# VL: QSALTQPASVSGSPGQSITISCTGTSSDVGGYNYVSWYQQHPGKAPKLMIYEVSNRPSGVSNRFSGSNSGNTATLTINRVEAGDEADYYCQVWDSSNDLLIFGGGTKLTVLG
# B29: anti-mutCALR antibody clone 58 (antibody, human IgG1, lambda, N297A, V domains shown)
# VH: B1 VH with A55E, S84R, R87T, V93L
# VL: B28 VL
# Biological target: T1, human mutCALR on BaF3 cells stably …
# Assay: flow cytometry, BaF3 MPL-mutCALR cells
# Procedure: On the day of the assay, cells were washed and resuspended in assay buffer. Approximately 200,000 cells/well were added to 96-well plates and stained with the indicated concentration of antibodies for 30 minutes on ice. Cells were then washed and stained with goat anti-human secondary conjugated to R-phycoerythrin (R-PE) (Jackson Immuno Research Laboratories) for 30 minutes on ice. The cells were then washed and analyzed by flow cytometry.
Binder,EC50 [ng/mL],MPL-mutCALR AUC
B1,1.7,58300
B2,2.3,71100
B3,1.1,58300
B4,–,96700
B5,10,57200
B6,1.7,85200
B7,1.7,69700
B8,2,65000
B9,0.4,73400
B10,4.3,67300
B11,2.6,85800
B12,4,63500
B13,6.3,61600
B14,4.3,54700
B15,7.9,69900
B16,3.5,55600
B17,6.3,60800
B18,3.2,56300
B19,23.2,76400
B20,3.9,53000
B21,4.4,68000
B22,5,70700
B23,21.7,50300
B24,12.4,53600
B25,3.5,49500
B26,5.2,52100
B27,10.1,73100
B28,6.9,64400
B29,8.6,69800
